Source: publication PMC7246762, “Peptide Interference with APP and Tau Association: Relevance to Alzheimer’s Disease Amelioration” (International Journal of Molecular Sciences, 2020)
No end group written: not given here.

Biological target: T1, Tau1 (19-34) peptide labelled with rhodamine (human, also: labelled with rhodamine isothiocyanate, site not given here)
T1 construct: microtubule-associated protein Tau, human, residues 19-34; also called Tau1R; source: synthetic peptide (GL Biochem Ltd.), labelled with rhodamine isothiocyanate
T1 peptide: GLGDRKDQGGYTMHQD
Assay: far-Western, overlay or dot blot; mixtures of a fluorescein-labelled (green) and a rhodamine-labelled (red) peptide spotted on a nitrocellulose membrane; yellow colour read as binding
Details: both partners purified

- binding result: binds
B1: APP1 (390-412) peptide labelled with fluorescein (peptide)
peptide: HFQKAKERLEAKHRERMSQVMRE
modifications: also: labelled with fluorescein isothiocyanate, site not given here
notes: amyloid precursor protein, human, residues 390-412; The discussion names the region as 389-411; also called APP1F; App1F; source: synthetic peptide (GL Biochem Ltd.), labelled with fluorescein isothiocyanate
